# From patent US11306137B2, “Antibody binding agents that bind Acinetobactor and uses thereof” (priority 2015, dated 2022)
# Entries after “also recorded” stand apart in the source; their conditions may differ.
# Columns and labels:
# [1] = tested on: A. baumannii HUMC1 uptake by RAW 264.7 macrophages; experiment: Opsonophagocytosis assay (macrophage uptake); assay type: cell-based; conditions: FIG. 6B
# Experimental: RAW 264.7 macrophages (1×10^6 per well) were grown on coverslips in 12-well plates and stimulated with 100 U/mL IFN-γ. Cells adhered to the cover glass overnight in a humidified incubator at 37° C. supplemented with 5% CO2. Cells were washed three times with HBSS and bacteria were added to wells at a ratio of 10:1, bacteria to macrophages, in the presence (or absence) of 10% fetal bovine serum (FBS), either heat-inactivated or complement-active. Plates were briefly centrifuged at 250×g to cohere the bacterial cells to the bottom of the plate and incubated at 37° for 2 hr. Macrophages were washed three times with PBS, fixed with 100% methanol, and Hema 3-stained according to the manufacturer's protocol (Fisher Scientific). To quantitate bacteria counts per macrophage, coverslips were imaged on a Zeiss Axiolmager microscope. Macrophages harboring visible adherent or internalized bacteria were counted and divided by total macrophages to determine the percentage of cells with associated bacteria. The number of bacteria associated with each macrophage was also quantitated and recorded. A minimum of 100 cells per coverslip were counted.
# A. baumannii HUMC1 [2] = experiment: Oropharyngeal aspiration pneumonia model, survival; assay type: in vivo, mice; conditions: for survival: oropharyngeal aspiration of HUMC1
# Experimental: (§1) To determine if C8 could treat, inhibit and/or prevent A. baumannii induced sepsis, mice were infected i.v. via the tail-vein with 2×10^7 hyper-virulent A. baumannii HUMC1 and were treated once i.v. with either protein-G purified C8 mAb (approximately 10 or 20 μg doses) or an isotype-control antibody in a saline buffer. […] In a second experiment, mice were similarly infected and the C8 MAb was administered once i.v. in saline buffer at a low (5 μg) and very low (0.5 μg) dose.
# (§2) Male C3HeB/Fe mice (Jackson Labs) between the ages of 7-10 wk were used for all experiments. All animal work was conducted following approval by the Institutional Animal Use and Care Committee at the University of Southern California, in compliance with the recommendations in the Guide for the Care and Use of Laboratory Animals of the National Institutes of Health.
# (§3) For the bloodstream infection model, mice were infected intravenously via the tail-vein with designated inocula of A. baumannii isolates. An oropharyngeal model of aspiration pneumonia that recapitulates hospital- or ventilator-associated pneumonia (VAP) relevant to ICU populations was used. In brief, mice were sedated with isoflurane, hung by their maxillary incisors, tongues held to prevent swallowing, and 50 μL of bacterial inocula was placed in the trachea to allow inoculation of the organisms into the lungs by reflexive aspiration.
# [3] = tested on: A. baumannii cell surface; experiment: Flow cytometry binding to A. baumannii cell surface
# Experimental: Hybridoma pre-clones were selected for subcloning based on bacterial cell surface reactivity by flow cytometry. Briefly, A. baumannii was passaged to log phase, stained with the bacterial dye SYTO BC (LifeTech #B7277), then stained with pre-clone supernatant from 96-well plates at 4° C., rinsed, and counter-stained with CF 647-conjugated goat anti-mouse IgG (Sigma-Aldrich, #SAB4600182). Control samples were stained with mouse IgG1 isotype control mAb (R&D Systems, #MAB002). Percent positivity was determined by flow cytometry.
# Hybridoma cell lines were propagated in 96-well flat-bottom plates in DMEM-20%, and supernatants were harvested from wells for initial flow cytometry screening to identify antibodies that bound to intact bacteria. In brief, A. baumannii isolates were passaged to log phase, stained with the bacterial dye SYTO BC (LifeTech #B7277), and incubated for 1 hr with undiluted supernatants collected from 96-well plates at 4° C. Cells were washed and counter-stained with a secondary antibody, CF647-conjugated goat anti-mouse IgG (Sigma-Aldrich, #SAB4600182). Control samples were stained with a mouse IgG1 isotype control MAb (R&D Systems, #MAB002) as a negative control, and mouse polyclonal HUMC1-immune serum as a positive control for bacterial binding. Hybridomas that tested positive for bacterial binding were subcloned by limiting dilution into 96-well plates to ensure clonality, expanded, and retested to confirm bacterial binding.
# [4] = tested on: pili preparations from A. baumannii; experiment: Western blot of pili preparations (proteinase K or periodate treated); assay type: binding
# Experimental: Since it appeared that C8 bound to the pili on the surface of the bacteria, an established protocol was to sheer pili off the bacteria in an attempt to more accurately determine the epitope targeted by C8. To distinguish protein from carbohydrate targets, the pili preparation was divided into three portions: one fraction was treated with proteinase K, one fraction was treated with periodate to degrade carbohydrates, and one fraction was untreated. The pili preparations were run in a western blot and stained with C8 or isotype control MAb.
# A. baumannii HUMC1 [5] = experiment: Lethal bloodstream (i.v. tail-vein) infection model, survival; assay type: in vivo, mice; conditions: for protection against infection (survival): 2×10^7 HUMC1 i.v., treated once i.v., FIG. 2; for survival: HUMC1 i.v., FIG. 3 / FIG. 7B
# Experimental: as §1, §2, §3
# A. baumannii HUMC1 [6] = experiment: In vitro complement susceptibility (bacterial growth in mouse serum); assay type: cell-based; conditions: heat-inactivated or complement-active CD-1 mouse serum; FIG. 6A
# Experimental: Overnight cultures of A. baumannii were subcultured to log-phase, washed in PBS, and resuspended at 1×10^6 CFUs/mL in 3 mL HBSS containing 50% CD-1 mouse serum that had been either heat-inactivated at 57° C. for 30 minutes or not. Tubes were shaken (200 rpm) for 2 hr at 37° C. and bacterial expansion was quantified by serially diluting cultures on TSA plates and counting CFUs.
# A. baumannii HUMC1 [7] = experiment: Blood bacterial density, plasma cytokines and sepsis biomarkers after i.v. infection
# A. baumannii HUMC1 [8] = experiment: Lung and blood bacterial burden and lung histopathology in aspiration pneumonia; conditions: 24 hr post-infection
# [9] = 22 hr post-infection, relative to controls
molecule,measurement,setting,value
"C8: mouse IgG1-kappa monoclonal antibody from hybridoma 9.1C8 (ATCC PTA-122177); light chain SEQ ID NO:2, heavy chain SEQ ID NO:3 (antibody, listed as Mus musculus, V domains shown) VH: EVQLQQSGPELVKPGASVKISCKASGYSFTGYTMNWVKQSHGKSLEWIGRINPYNGDSFYNQKFKGKATLTVDKSSNIAHMEFLSLTSEDSAVYYCGRSGDGPWFAYWGQGTLVTVSA VL: LPLSLPVSLGDQASISCRSSQSIVHNNGNTYLEWYLQKPGQSPKLLIYKVSNRFSGVPDRFSGSGSGTDFTLKISRVEAEDLGVYYCFQGSHVPLTFGAGTKLEIKGSRS",macrophage uptake of A. baumannii,"[1]; C8 5 μg/mL, heat-inactivated or complement-active serum",markedly increased; also recorded: markedly improved macrophage uptake
same,macrophage uptake of A. baumannii with active complement,[1]; C8 MAb plus normal serum with active complement,highest uptake; also recorded: enhancement was greatest with complement
same,"survival, delayed treatment","A. baumannii HUMC1 [2]; lung model, therapy administered 4 hr post-infection",fully protective
same,survival,"A. baumannii HUMC1 [2]; 5 μg i.v., FIG. 4 / FIG. 9A",nearly fully protective; also recorded: markedly improved survival
same,survival,"A. baumannii HUMC1 [2]; 50 μg i.p., FIG. 9B",fully protective
same,binding to the cell surface of A. baumannii by flow cytometry,[3]; HUMC1 strain,specifically bound; also recorded: to the same extent as polyclonal immune serum
same,surface binding to other clinical isolates by flow cytometry,"[3]; HUMC6, C14, ATCC 17978, AB0071, UH7007 (Table 7)",representative of 5 other strains; also recorded: Surface binding was confirmed to 4 other diverse clinical isolates
same,"western blot signal, periodate treated pili fraction",[4]; periodate treatment (degrades carbohydrates),eliminated completely
same,"western blot signal, proteinase K treated pili fraction",[4]; proteinase K treatment,unchanged
same,"western blot signal, untreated pili fraction",[4]; untreated,large conglomeration at the top of the gel
same,epitope / target on A. baumannii,[4]; western blots and flow binding to a capsule-mutant bacterial strain,binds to capsular polysaccharide
same,protection against infection (survival),A. baumannii HUMC1 [5]; approximately 10 μg,100%
same,protection against infection (survival),A. baumannii HUMC1 [5]; approximately 20 μg,100%
same,survival,A. baumannii HUMC1 [5]; 0.5 μg once i.v. immediately,markedly improved survival; also recorded: significantly improved survival
same,survival,A. baumannii HUMC1 [5]; 5 μg once i.v. immediately,markedly improved survival; also recorded: fully protective
same,impact on bacterial growth in vitro,A. baumannii HUMC1 [6],minimal impact
same,plasma IL-6,"A. baumannii HUMC1 [7]; 2 hr after infection, FIG. 8B",significantly reduced
same,plasma TNF,"A. baumannii HUMC1 [7]; 2 hr after infection, FIG. 8B",significantly reduced
same,anion gap,A. baumannii HUMC1 [7]; [9],normal
same,base deficit,A. baumannii HUMC1 [7]; [9],normal
same,blood glucose,A. baumannii HUMC1 [7]; [9],normal
same,blood pH,A. baumannii HUMC1 [7]; [9],normal
same,serum bicarbonate,A. baumannii HUMC1 [7]; [9],normal
same,plasma IL-1β,"A. baumannii HUMC1 [7]; 22 hr post-infection, FIG. 8B",virtually undetectable
same,plasma IL-10,"A. baumannii HUMC1 [7]; 22 hr post-infection, FIG. 8B",virtually undetectable
same,blood urea nitrogen (BUN) levels,"A. baumannii HUMC1 [7]; 22 hr post-infection, FIG. 8C",baseline
same,physiology (biomarkers of sepsis),"A. baumannii HUMC1 [7]; between 2 and 24 hours, FIG. 8C",maintained baseline physiology
same,bacterial density in the blood over time,"A. baumannii HUMC1 [7]; over the next 20 h, 5 μg i.v., FIG. 8A",continued to decrease
same,lower bacterial density in the blood than isotype control,"A. baumannii HUMC1 [7]; two hours after treatment, 5 μg i.v., FIG. 8A","1,000 fold"
same,reduction of bacterial burden in the blood vs control mice,"A. baumannii HUMC1 [8]; 50 μg C8, FIG. 9C",7 log
same,reduction of bacterial burden in the lungs vs control mice,"A. baumannii HUMC1 [8]; 50 μg C8, FIG. 9C",2 log
same,lung histology (H&E),A. baumannii HUMC1 [8]; FIG. 9D-E,appeared normal; also recorded: maintained normal lung architecture
